# Data from the supplement of paper PMC9170038.
# Tests used:
# MS2 coat protein = test: apparent KD of MS2 coat protein; higher = weaker reporter binding; conditions: Eterna round: R107
# Procedure: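 RNA-MaP round R107: designed RNA switches with theophylline, tryptophan, arginine or FMN aptamers are transcribed on-chip within common flanks. They are titrated with SNAP-549-labelled MS2 coat protein in RNA-MaP buffer (100 mM Tris pH 7.5, 80 mM KCl, 4 mM MgCl2), without ligand or with the indicated ligand. Median apparent KD per design.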
# [1] = test system: K4 kissing-loop RNA reporter; test: apparent KD of K4 kissing-loop reporter; higher = weaker reporter binding; conditions: Eterna round: R107;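 also: bound reporter read as fluorescence of individual clusters on recovered sequencing chips by microscopy, with normalized cluster intensities fitted with a binding model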
# Procedure: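 RNA-MaP round R107: designed RNA switches with theophylline, tryptophan, arginine or FMN aptamers are transcribed on-chip within common flanks. They are titrated with a labelled K4 kissing-loop RNA reporter in RNA-MaP buffer (100 mM Tris pH 7.5, 80 mM KCl, 4 mM MgCl2), without ligand or with the indicated ligand. Median apparent KD per design.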
# [2] = input ligand: theophylline 20 uM
# [3] = input ligand: tryptophan 2.4 mM
# [4] = input ligand: theophylline 2 mM
Sequence,apparent KD of MS2 coat protein (MS2 coat protein; input ligand: arginine 13.2 mM) [nM],apparent KD of MS2 coat protein (MS2 coat protein; [2]) [nM],apparent KD of MS2 coat protein (MS2 coat protein; [3]) [nM],apparent KD of MS2 coat protein (MS2 coat protein; [4]) [nM],apparent KD of MS2 coat protein (MS2 coat protein; input ligand: none) [nM],apparent KD of K4 kissing-loop reporter ([1]; input ligand: FMN 200 uM) [nM],apparent KD of K4 kissing-loop reporter ([1]; input ligand: arginine 13.2 mM) [nM],apparent KD of K4 kissing-loop reporter ([1]; input ligand: none) [nM],"apparent KD of K4 kissing-loop reporter [1, 2] [nM]","apparent KD of K4 kissing-loop reporter [1, 3] [nM]"
UGCGGACAUGAGGAUCACCCAUGUGCGGAUACCAGCAGCCGGCUCUGCCCUUGGCAGCCGCUACCCUUGCACGUUUAACGAUCCA [theeternabot_sameState_MS2_Theo_A_27],31.9,60.2,50.1,,,,,,,
UAUCGUCAGACGGCCGCCACUAGAACAUGAGGAUCACCCAUGUAGGUCCUAGAUUCCUCAAUAACUAGGACCGGGUCUGACGAAU [(Trp1)-(Ms2)-(T)'-(M)'-(Trp2)_Design14],81.8,137,,224,,,,,,
CCUAUGCAGUCGGCCGCCACUGAUAAAGUUAUCUUUACCUCAGAAACAUGAGGAUCACCCAUGUACAGGACCGGGACUGUAUAGG [Ex Tryptophan B 18],14.8,14.6,,15.9,,,,,,
CCUAUCCAGUCGGCCGCCACUGAAAACAGUGGGUGAACAUGAGGAUCACCCAUGUAAUAAUAAAACAGGACCGGGACUGUAUAGG [Ex Tryptophan B 22],290,458,369,882,452,,,,,
AACAUGAGGAUCACCCAUGUAUGUUCCGAAGGAGCGCCACAUGAGGCAGGUAGGUCGCGGGUACAUGAGGAUCACCCAUGUGUCA [Exclusion Arginine A 3],56.5,170,174,128,113,,,,,
AUACAUGAGGAUCACCCAUGUAUAGUUGAAGGAGCGACCGGUGGGUCAGGUAGGUCGCAGCGCAUGGCGUCCACGCGUGUAUGCC [#1 Exclusion - Arginine A Attempt #30 (Inspired by Pi)],10.7,16.4,11.1,11.3,10.7,,,,,
AGACGUUUGGGAAGGAGCGGAAUGUAAUACGGAACGCGUGGAGGUGCAGUGAUGUUGCAGAUCCAGGUAGGUCGCCCAAGGGACG [Esenraerve],,,,,,94.1,122,99.1,137,91.1
UUCGUAGUAGGAAACUAUUACGAAAAGGAAGGAGCGGCGAAGAAGCCAGGUAGGUCGCCUAUUGACAGUGAUGUUGUUAUGUAGA [#9],,,,,,172,341,241,360,142
UUUAAAUAUAGUGAUGUUAUAUAACAAUGACGAGGACCGGUACGGCCGCCACUCGAGAGAGAUAAUGGUCGUUCGAAUCGAACGC [AstrosSSTryA#6],,,,,,599,779,672,574,410
UUAUUAAUCACAGAUACCAGUCCAGAAUGAAUACUAUAGUGAUGUUAUAAUAAAGGGAAGGACCCUUGGCAGCUGUAAUAUAUUU [AstrosSsTheB#2],,,,,,525,370,499,354,320
AAGCAGUCACUCGAAGCCAUCGAAGAUGGUCGAGGACCGGUACGGCCGCCACUCGGAGUGAUGUUCCGAAGACUGCAAAAUAAAA [#SwitchBubble 11],,,,,,275,246,286,273,526
UGCCCGCGCGAAGGAUAUGAGAGCUUGUCUGUCCAGUGAUGUUGGAGGUUGGUGAUUUGCUAGGCGUCAGAAGGUCGAGCUUAUA [theeternabot_sameState_KL_FMN_B_14],,,,,,192,94.4,153,150,133
GGGUUUGCCGGAAGGAGCGCACUAUGGAGUGAUGUUCCAUGACCGCACAGCUUGCGGUCAGUGCAGGUAGGUCGCCGGUAGCGUU [Maedzaus],,,,,,205,203,239,271,179
CGCCGCAACUGAAGGAGCGCGCCAGUGAUGUUGGACGGCUUUGUCAAGGAAACUGCACCGGUGCAGGUAGGUCGCAGUUCGCGGU [Dilea],,,,,,278,291,297,253,252
UGAUAGGACAGAAGGAGCGGGAGUGAUGUUCCCAAUAGGAGGUCUAGCAAAGCUGGACCCUCCCAGGUAGGUCGCUGUCCUAUCU [ArgBX 3 #SwitchBubble #StaticStem],,,,,,102,115,96.1,115,108
CAGGUGCUGAUGCGGUGGCCGGUGGUCGUGCGAGGACCGGUACGGCCGCCACUCGCAUGAGUGAUGUUCAUGUGUCGUCGUCGUC [whbob_EX_Tryp_A_t2],,,,,,229,136,188,192,223
